In the supplement of paper PMC10567573:

B1: BTBD1 (parent)
chain: YGSIHGPTDYQVNIQIIEYEKKQT

Variants of: B1
Assay: protein stability index of a GFP-peptide fusion (GPS, HEK-293T) (PSI 1-6); higher = more stable
Settings: c terminus: a fixed tail appended
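Further: lentivirally expressed fusions sorted by FACS into six bins by GFP to DsRed ratio, PSI derived from sequencing read proportions per bin multiplied by bin number.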

Row | Variant | protein stability index
1 | YGSIHTPTDYQVNIQIIEYEKKQT | 3.19
2 | YGSIHVPTDYQVNIQIIEYEKKQT | 2.21
3 | YGSIHKPTDYQVNIQIIEYEKKQT | 3
4 | YGSIHGPTDYQVSIQIIEYEKKQT | 2.15
5 | YGSIHGPTDYQVKIQIIEYEKKQT | 2.57
6 | YGSIHGPTDYQVRIQIIEYEKKQT | 2
7 | YGSIHGPTDYQVWIQIIEYEKKQT | 1.85
8 | YGSIHGPTDYQVNIQIIEYQKKQT | 2.2
9 | YGSIHGPTDYQVNIQIIEYYKKQT | 1.88
10 | YGSIHGPTDYQVNIQIIEYTKKQT | 2.25
11 | YGVIHGPTDYQVNIQIIEYEKKQT | 2.57
12 | YGIIHGPTDYQVNIQIIEYEKKQT | 2.24
13 | YGMIHGPTDYQVNIQIIEYEKKQT | 2.87
14 | YGQIHGPTDYQVNIQIIEYEKKQT | 3.33
15 | YGLIHGPTDYQVNIQIIEYEKKQT | 2.94
16 | YGWIHGPTDYQVNIQIIEYEKKQT | 2.17
17 | YGSIHGETDYQVNIQIIEYEKKQT | 3.33
18 | YGSIHGVTDYQVNIQIIEYEKKQT | 2.63
19 | YGSIHGTTDYQVNIQIIEYEKKQT | 2.73
20 | YGSIHGWTDYQVNIQIIEYEKKQT | 4.06
21 | YGSIHGPTDYQANIQIIEYEKKQT | 3.6
22 | YGSIHGPTDYQINIQIIEYEKKQT | 2.72
23 | YGSIHGPTDYQCNIQIIEYEKKQT | 2.77
24 | YGSIHGPTDYQFNIQIIEYEKKQT | 2.71

Row | Variant | protein stability index
25 | YGSIHGPTDYQPNIQIIEYEKKQT | 2.95
26 | YGSIHGPTDYQYNIQIIEYEKKQT | 2.87
27 | YGSMHGPTDYQVNIQIIEYEKKQT | 2.41
28 | YGSNHGPTDYQVNIQIIEYEKKQT | 2.93
29 | YGSGHGPTDYQVNIQIIEYEKKQT | 2.16
30 | YGSRHGPTDYQVNIQIIEYEKKQT | 1.93
31 | YGSCHGPTDYQVNIQIIEYEKKQT | 2.32
32 | YGSIHGPTDYQVNQQIIEYEKKQT | 3.74
33 | YGSIHGPTDYQVNMQIIEYEKKQT | 3.37
34 | YGSIHGPTDYQVNSQIIEYEKKQT | 3.08
35 | YGSIHGPTDYQVNAQIIEYEKKQT | 3.47
36 | YGSIHGPTDYQVNIQIIEYEKKQP | 2.3
37 | YGSIHGPTDYQVNIQIIEYEKKQN | 2.9
38 | YGSIHGPTDYQVNIQIIEYEKKQR | 2.69
39 | YGSIHGPTDYQVNIQIIEYEKKQL | 2.03
40 | YGSIHGPTDYQVNIQIIEYEKKQA | 3.1
41 | YPSIHGPTDYQVNIQIIEYEKKQT | 2.81
42 | YFSIHGPTDYQVNIQIIEYEKKQT | 2.48
43 | YRSIHGPTDYQVNIQIIEYEKKQT | 2.5
44 | YKSIHGPTDYQVNIQIIEYEKKQT | 3.06
45 | YNSIHGPTDYQVNIQIIEYEKKQT | 3.28
46 | YWSIHGPTDYQVNIQIIEYEKKQT | 2.5
47 | YVSIHGPTDYQVNIQIIEYEKKQT | 3.34
48 | VGSIHGPTDYQVNIQIIEYEKKQT | 3.84

Row | Variant | protein stability index
49 | YGSIHGPTDYQVNIQVIEYEKKQT | 3.15
50 | YGSIHGPTDYQVNIQKIEYEKKQT | 3.97
51 | YGSIHGPTDYQVNIQTIEYEKKQT | 3.58
52 | YGSIHGPTDYQVNIQRIEYEKKQT | 3.46
53 | YGSIHGPTDYQVNIQMIEYEKKQT | 3.32
54 | YGSIHGPTPYQVNIQIIEYEKKQT | 2.44
55 | YGSIHGPTLYQVNIQIIEYEKKQT | 3.37
56 | YGSIHGPTDYQVNIQIIEYEVKQT | 1.59
57 | YGSIHGPTDYQVNIQIIEYEFKQT | 3.75
58 | YGSIHGPTDYQVNIQIIEYECKQT | 1.96
59 | YGSIHGPTDYQVNIQIIEYEKGQT | 2.24
60 | YGSIHGPTDYQVNIQIIEYEKCQT | 1.52
61 | YGSIHGPTDYQVNIQIIEYEKNQT | 2.5
62 | YGSIHGPTDYQVNIQIIEYEKVQT | 2.54
63 | YGSIHGPTDYQVNIQIIEYEKFQT | 1.39
64 | YGSIHGPTDYQVNIQIIEYEKMQT | 2.59
65 | YGSIHGPTDYQVNIGIIEYEKKQT | 2.47
66 | YGSIHGPTDYQVNISIIEYEKKQT | 2.57
67 | YGSIHGPTDYQVNIWIIEYEKKQT | 4.17
68 | YGSIHGPTDYQVNILIIEYEKKQT | 2.09
69 | YGSIKGPTDYQVNIQIIEYEKKQT | 3.72
70 | YGSIHGPTDYQVNIQIIEHEKKQT | 3.23
71 | YGSIHGPTDYQVNIQIIEDEKKQT | 3.76
72 | YGSIHGPTDYQVNIQIIEQEKKQT | 3.29

Row | Variant | protein stability index
73 | YGSIHGPTDYQVNIQIIEEEKKQT | 4.05
74 | YGSIHGPTDTQVNIQIIEYEKKQT | 4.1
75 | YGSIHGPTDQQVNIQIIEYEKKQT | 4.33
76 | YGSIHGPTDWQVNIQIIEYEKKQT | 2.05
77 | YGSIHGPTDRQVNIQIIEYEKKQT | 4.12
78 | YGSIHGPTDYQVNIQIWEYEKKQT | 2.71
79 | YGSIHGPTDYQVNIQIPEYEKKQT | 3.44
80 | YGSIHGPTDYQVNIQIGEYEKKQT | 3.31
81 | YGSIHGPTDYQVNIQIHEYEKKQT | 3.22
82 | YGSIHGPTDYQVNIQIQEYEKKQT | 3.35
83 | YGSIHGPLDYQVNIQIIEYEKKQT | 1.91
84 | YGSIHGPNDYQVNIQIIEYEKKQT | 2.94
85 | YGSIHGPFDYQVNIQIIEYEKKQT | 2.17
86 | YGSIHGPTDYQVNIQIIRYEKKQT | 1.85
87 | YGSIHGPTDYQVNIQIIHYEKKQT | 1.84
88 | YGSIHGPTDYQVNIQIINYEKKQT | 2.17
89 | YGSIHGPTDYQVNIQIIDYEKKQT | 2.64
90 | YGSIHGPTDYQVNIQIIMYEKKQT | 2.44
91 | YGSIHGPTDYQVNIQIIEYEKKAT | 2.33
92 | YGSIHGPTDYQVNIQIIEYEKKTT | 2.13
93 | YGSIHGPTDYQVNIQIIEYEKKDT | 2.46
94 | YGSIHGPTDYDVNIQIIEYEKKQT | 3.52
